Biological target: T1, recombinant human LAIR1 (leukocyte-associated immunoglobulin-like receptor 1) (human), Q6GTX8
T1 chain: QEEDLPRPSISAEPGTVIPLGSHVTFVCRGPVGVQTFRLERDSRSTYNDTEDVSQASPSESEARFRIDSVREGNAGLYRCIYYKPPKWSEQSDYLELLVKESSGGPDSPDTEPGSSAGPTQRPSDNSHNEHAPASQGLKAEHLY

B1: polymerized type I collagen (protein)
chain 1: not shown
chain 2: GPMGLMGPRGPPGAVGAPGPQGFQGPAGEPGEPGQTGPAGARGPPGPPGKAGEDGHPGKPGRPGERGVVGPQGARGFPGTPGLPGFKGIRGHNGLDGLKGQPGAPGVKGEPGAPGENGTPGQTGARGLPGERGRVGAPGPAGARGNDGSVGPVGPAGPIGSAGPPGFPGAPGPKGELGPVGNPGPAGPAGPRGEVGLPGVSGPVGPPGNPGANGLPGAKGAAGLPGVAGAPGLPGPRGIPGPAGAAGATGARGLVGEPGPAGSKGESGNKGEPGAAGPQGPPGPSGEEGKRGPNGEVGSAGPPGPPGLRGNPGSRGLPGADGRAGVMGPPGSRGPTGPAGVRGPNGDSGRPGEPGLMGPRGFPGSPGNVGPAGKEGPAGLPGIDGRPGPIGPAGARGEPGNIGFPGPKGPTGDPGKNGEKGHAGLAGARGAPGPDGNNGAQGPPGPQGVQGGKGEQGPAGPPGFQGLPGPAGTAGEVGKPGERGIPGEFGLPGPAGPRGERGPPGESGAAGPAGPIGSRGPSGPPGPDGNKGEPGVLGAPGTAGPSGPSGLPGERGAAGIPGGKGEKGETGLRGDVGSPGRDGARGAPGAVGAPGPAGANGDRGEAGPAGPAGPAGPRGSPGERGEVGPAGPNGFAGPAGAAGQPGAKGERGTKGPKGENGPVGPTGPVGAAGPAGPNGPPGPAGSRGDGGPPGATGFPGAAGRIGPPGPSGISGPPGPPGPAGKEGLRGPRGDQGPVGRTGETGASGPPGFAGEKGPSGEPGTAGPPGTPGPQGILGAPGFLGLPGSRGERGLPGVAGSVGEPGPLGIAGPPGARGPPGAVGNPGVNGAPGEAGRDGNPGSDGPPGRDGQAGHKGERGYPGNPGPAGAAGAPGPQGAVGPAGKHGNRGEPGPAGSVGPAGAVGPRGPSGPQGIRGEKGEPGDKGPRGLPGLKGHNGLQGLPGLAGHHGDQGAPGPVGPAGPRGPAGPSGPAGKDGRTGQPGAVGPAGIRGSQGSQGPAGPPGPPGPPGPPGPS
modifications: here or on the partner: covalent bond between the protein and the PVP moiety; γ-irradiated | covalent bond between the protein and the PVP moiety; γ-irradiated
Question: Which results are given for B1?
Answer: percentage of CD14+/CD16+/CD163+/IL-10-expressing cells (M2 phenotype) in M1 cultures without vs. with 10% PTIC, flow cytometry: 19.8%; percentage of CD16+/CD36+/CD86+/IL-1β-expressing cells (M1 phenotype) in M1 cultures without vs. with 10% PTIC, flow cytometry: 1.5%
